Molecular target: B-cell maturation antigen (BCMA) expressed on cells (human), Q02223
Experiment: cell-based or functional assay

Sequence of B-cell maturation antigen (BCMA) expressed on cells (human), Q02223 (Q02223 whole entry): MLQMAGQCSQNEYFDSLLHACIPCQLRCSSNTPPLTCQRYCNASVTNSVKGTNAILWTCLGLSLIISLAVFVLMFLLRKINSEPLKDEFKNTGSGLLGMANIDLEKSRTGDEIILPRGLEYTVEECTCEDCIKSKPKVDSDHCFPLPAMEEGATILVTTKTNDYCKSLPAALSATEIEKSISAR

| Binder | Cell killing EC50; KMS11-luc [not printed] | JNL binding assay, ratio to K562; K562-BCMA | JNL binding assay, ratio to K562; NCI-H929 | JNL binding assay, ratio to K562; RPMI 8226 | Proliferation, CD3 ratio to no target; K562-BCMA | Proliferation, CD3 ratio to no target; KMS11-luc | Proliferation, CD3 ratio to no target; NCI-H929 | Proliferation, CD3 ratio to no target; RPMI 8226 | Proliferation, CD4 ratio to no target; K562-BCMA | Proliferation, CD4 ratio to no target; KMS11-luc |
| --- | --- | --- | --- | --- | --- | --- | --- | --- | --- | --- |
| BCMA-8 CAR (139107) (protein) EVQLVETGGGVVQPGGSLRLSCAVSGFALSNHGMSWVRRAPGKGLEWVSGIVYSGSTYYAASVKGRFTISRDNSRNTLYLQMNSLRPEDTAIYYCSAHGGESDVWGQGTTVTVSSASGGGGSGGRASGGGGSEIVLTQSPGTLSLSPGERATLSCRASQSVGSTNLAWYQQKPGQAPRLLIYDASNRATGIPDRFSGGGSGTDFTLTISRLEPEDFAVYYCQQYGSSPPWTFGQGTKVEIKTTTPAPRPPTPAPTIASQPLSLRPEACRPAAGGAVHTRGLDFACDIYIWAPLAGTCGVLLLSLVITLYCKRGRKKLLYIFKQPFMRPVQTTQEEDGCSCRFPEEEEGGCELRVKFSRSADAPAYKQGQNQLYNELNLGRREEYDVLDKRRGRDPEMGGKPRRKNPQEGLYNELQKDKMAEAYSEIGMKGERRRGKGHDGLYQGLSTATKDTYDALHMQALPPR | 0.14 | 3.17 | 2.67 | 3.87 | 2.55 | 2.46 | 2.17 | 2.56 | 3.59 | 3.11 |
| BCMA-9 CAR (139108) (protein) QVQLVESGGGLVKPGGSLRLSCAASGFTFSDYYMSWIRQAPGKGLEWVSYISSSGSTIYYADSVKGRFTISRDNAKNSLYLQMNSLRAEDTAVYYCARESGDGMDVWGQGTTVTVSSASGGGGSGGRASGGGGSDIQMTQSPSSLSASVGDRVTITCRASQSISSYLNWYQQKPGKAPKLLIYAASSLQSGVPSRFSGSGSGTDFTLTISSLQPEDFATYYCQQSYTLAFGQGTKVDIKTTTPAPRPPTPAPTIASQPLSLRPEACRPAAGGAVHTRGLDFACDIYIWAPLAGTCGVLLLSLVITLYCKRGRKKLLYIFKQPFMRPVQTTQEEDGCSCRFPEEEEGGCELRVKFSRSADAPAYKQGQNQLYNELNLGRREEYDVLDKRRGRDPEMGGKPRRKNPQEGLYNELQKDKMAEAYSEIGMKGERRRGKGHDGLYQGLSTATKDTYDALHMQALPPR | 0.68 | 1.59 | 1.99 | 1.54 | 1.51 | 1.66 | 4.63 | 2.5 | 1.59 | 1.49 |
| BCMA-12 CAR (139111) (protein) EVQLLESGGGLVQPGGSLRLSCAVSGFALSNHGMSWVRRAPGKGLEWVSGIVYSGSTYYAASVKGRFTISRDNSRNTLYLQMNSLRPEDTAIYYCSAHGGESDVWGQGTTVTVSSASGGGGSGGRASGGGGSDIVMTQTPLSLSVTPGQPASISCKSSQSLLRNDGKTPLYWYLQKAGQPPQLLIYEVSNRFSGVPDRFSGSGSGTDFTLKISRVEAEDVGAYYCMQNIQFPSFGGGTKLEIKTTTPAPRPPTPAPTIASQPLSLRPEACRPAAGGAVHTRGLDFACDIYIWAPLAGTCGVLLLSLVITLYCKRGRKKLLYIFKQPFMRPVQTTQEEDGCSCRFPEEEEGGCELRVKFSRSADAPAYKQGQNQLYNELNLGRREEYDVLDKRRGRDPEMGGKPRRKNPQEGLYNELQKDKMAEAYSEIGMKGERRRGKGHDGLYQGLSTATKDTYDALHMQALPPR | 0.22 | 3.17 | 2.78 | 3.36 | 2.9 | 2.76 | 2.98 | 3.27 | 3.42 | 2.94 |

Same assay, conditions: not given

| Binder | Proliferation, CD4 ratio to no target; NCI-H929 | Proliferation, CD4 ratio to no target; RPMI 8226 | Proliferation, CD8 ratio to no target; K562-BCMA | Proliferation, CD8 ratio to no target; KMS11-luc | Proliferation, CD8 ratio to no target; NCI-H929 | Proliferation, CD8 ratio to no target; RPMI 8226 |
| --- | --- | --- | --- | --- | --- | --- |
| BCMA-8 CAR (139107) (protein) EVQLVETGGGVVQPGGSLRLSCAVSGFALSNHGMSWVRRAPGKGLEWVSGIVYSGSTYYAASVKGRFTISRDNSRNTLYLQMNSLRPEDTAIYYCSAHGGESDVWGQGTTVTVSSASGGGGSGGRASGGGGSEIVLTQSPGTLSLSPGERATLSCRASQSVGSTNLAWYQQKPGQAPRLLIYDASNRATGIPDRFSGGGSGTDFTLTISRLEPEDFAVYYCQQYGSSPPWTFGQGTKVEIKTTTPAPRPPTPAPTIASQPLSLRPEACRPAAGGAVHTRGLDFACDIYIWAPLAGTCGVLLLSLVITLYCKRGRKKLLYIFKQPFMRPVQTTQEEDGCSCRFPEEEEGGCELRVKFSRSADAPAYKQGQNQLYNELNLGRREEYDVLDKRRGRDPEMGGKPRRKNPQEGLYNELQKDKMAEAYSEIGMKGERRRGKGHDGLYQGLSTATKDTYDALHMQALPPR | 2.98 | 3.33 | 1.59 | 1.83 | 1.41 | 1.81 |
| BCMA-9 CAR (139108) (protein) QVQLVESGGGLVKPGGSLRLSCAASGFTFSDYYMSWIRQAPGKGLEWVSYISSSGSTIYYADSVKGRFTISRDNAKNSLYLQMNSLRAEDTAVYYCARESGDGMDVWGQGTTVTVSSASGGGGSGGRASGGGGSDIQMTQSPSSLSASVGDRVTITCRASQSISSYLNWYQQKPGKAPKLLIYAASSLQSGVPSRFSGSGSGTDFTLTISSLQPEDFATYYCQQSYTLAFGQGTKVDIKTTTPAPRPPTPAPTIASQPLSLRPEACRPAAGGAVHTRGLDFACDIYIWAPLAGTCGVLLLSLVITLYCKRGRKKLLYIFKQPFMRPVQTTQEEDGCSCRFPEEEEGGCELRVKFSRSADAPAYKQGQNQLYNELNLGRREEYDVLDKRRGRDPEMGGKPRRKNPQEGLYNELQKDKMAEAYSEIGMKGERRRGKGHDGLYQGLSTATKDTYDALHMQALPPR | 4.45 | 2.24 | 1.43 | 1.83 | 4.79 | 2.76 |
| BCMA-12 CAR (139111) (protein) EVQLLESGGGLVQPGGSLRLSCAVSGFALSNHGMSWVRRAPGKGLEWVSGIVYSGSTYYAASVKGRFTISRDNSRNTLYLQMNSLRPEDTAIYYCSAHGGESDVWGQGTTVTVSSASGGGGSGGRASGGGGSDIVMTQTPLSLSVTPGQPASISCKSSQSLLRNDGKTPLYWYLQKAGQPPQLLIYEVSNRFSGVPDRFSGSGSGTDFTLKISRVEAEDVGAYYCMQNIQFPSFGGGTKLEIKTTTPAPRPPTPAPTIASQPLSLRPEACRPAAGGAVHTRGLDFACDIYIWAPLAGTCGVLLLSLVITLYCKRGRKKLLYIFKQPFMRPVQTTQEEDGCSCRFPEEEEGGCELRVKFSRSADAPAYKQGQNQLYNELNLGRREEYDVLDKRRGRDPEMGGKPRRKNPQEGLYNELQKDKMAEAYSEIGMKGERRRGKGHDGLYQGLSTATKDTYDALHMQALPPR | 3.41 | 3.66 | 1.51 | 2.11 | 1.76 | 2.12 |

— patent publication US20190153061A1
